Assay results as given in the domain aggregation screens of Martell et al. (2025).

Test: soluble fraction after stress (log2 fold change); higher = more stays soluble; pooled small domains, quantitative proteomics
Conditions: stress: 50 degC
Method in brief: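 Pooled custom libraries of small protein domains were each held under stress at 50°C. The read-out, high-throughput quantitative proteomics, tracked how much of each protein stayed soluble. This is reported as a base-two log fold change used to indicate aggregation propensity. Higher values mean more protein remains in solution.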

Point of comparison: “HMSQPLYWQIRRMVIDHDDANDVLQNTFIKAWSNIGSFRGDAKFSTWLYKIAVNESITFINKKKVQN”, “soluble fraction (log2)” value -0.469. Against it:
- HMSMFSEILRTLRKAKGLTQRELAGHLGVTQQMVAKWEKGQSTPGPDQLTRMAELLEVSTDTLLGR — higher, -0.162
- HMSMNSWFVEKERDNTRIDKFLNEQMADISRSYIQKLIKDDLVTVDLRPVKANYKVKEGDRVEVTLPEPV — higher, 0.0182
- HMSMPTITLQHYKRGSHYYASIIETFRDPVTRKNSSRTLEALGDISEKMKEDPNYLQSLKDRVKALRSD — within 0.2 log units, -0.656
- HMSMSLQFLSRRIRLQREKRGLKQHDIAHALQISPQAVSKWERGENAPDIALLRPLAGLLGVSIDWLMGGD — lower, -2.15
- HMSNEEEIEGLVSKVLDNNPEIVERIRSGEDKLISYLVGEVMKQSSSSLNPGIVKEIIVNKTI — higher, 0.161
- HMSNEITVPDLSGMSLEELETILSDRSLSYEIIDSIYNSTAKKGTVSSQDPLPDAKVKSGRTIYITVVSKL — lower, -1.5
- HMSNENIDQDELQAIIQKVLASNQDAVAKYKAGKTAVIGFLIGQVMRQLNKKIDVALAKKTLLVFLEK — within 0.2 log units, -0.396
- HMSNETKSAILNFAEKHHDFNIDDLFESLSKSMDINRSSLLWHLFKLVNSNVLIRTGRGMYAKV — lower, -1.89
- HMSNEVSYSDFVRSVESDEVNAVTLDGEQIRFVGNDGQTYSVIKPADAQITQLLIDNNVTVRAEQQ — higher, 0.0224
- HMSNEYLMPNLIGMSWDEAKSKYSQYMTLVPEQEWSEVTKDQIFDQEYPEGRKVKIGTEVTVKVSMGI — higher, -0.192
- HMSNFGALLRMRRLEAGLSYRGLAEQSGLARATLVNLEQGLTKPSPLTMRRLASVKALRLTEL — lower, -2.26
- HMSNFGERLRALRQDRQMTLQQASKVTGVAQSTLSKMENNQLSPTFNLMQKLAIGLGIDMPQLFAPVK — higher, -0.108
- HMSNGEWQQGSDGRWWYKFSDGTYPKNKVETIGGKKYGFDSEGWMLANTTKEFSGTTYSFGADGVATS — higher, 0.158
- HMSNHYETLGVEQTASVDEIKKAYRRLSLQYHPDRNTTSDAVGKFQKINDAHEILSDKQSRTEYDMQLK — higher, 0.214
- HMSNIQLAANLQRLRKDHHFTQTQFSKKLNISRQAYSNYETGKRIPDLDIIIRIANIYHISLENLL — within 0.2 log units, -0.389
- HMSNKYYETILDWFKSQIMSGELKEGDTIPSERELATRFGVSRVPVREALRILEYIGIVSNTADGMTVQKV — lower, -0.879
- HMSNLKKRRLEKNLTLDDVGKLVGVSAATISRWESGDIENMRSDKIVKLANALEISPAVILGW — higher, -0.0215
- HMSNLLKNILDVLEKEGPLKARKIALLLDSTRTTITHTTINSELYKALDLEGLTKNEQNIWSYVT — higher, 0.00627
- HMSNLVEVPAVIGRMKEDAITMLISAGLEPAVTYDEYPLVKENLVADQSVAPGQKVEKGSFVTITVSRS — higher, -0.0475
- HMSNMESLIGREATVIEMIPAEDVGRVKIDGDEWQAVLAREDDNEPRRDIQVGEKVIIVSYDSIILTVKTK — higher, 0.0115
- HMSNNENSILEKLNSFSGKKIKVSHTIGSLAARLDEYPKIKMWLYKRIRENSINEQAYKYLIFIIERKVR — lower, -1.2
- HMSNPADDVVDLLRQLRLPHMRAAAPELLATAKAQRWDPAEAIRALLTEELAGRQASSINARRK — within 0.2 log units, -0.406
- HMSNPPIRIGKKALHELLTTWLSLLSRDGVAYLVVQKNLGADSLTAWLRDQGFPSEKIASKKGFRIIEVH — higher, -0.245
- HMSNRDNPVVLDFKKVKSTEQLDNILEEYIRENFEGYTVKGRMFSSDEGKFIIALALKDDDGKRALVYFDV — within 0.2 log units, -0.635
- HMSNRIDKIKLNHWLNIRKTSLDVLNNLLSKHLNHKINFENLENLDEQAIEKISEVLSIPKNKLLINDDVP — higher, 0.16
- HMSNTVEDLIDDIGTVTKDSKDKIDAARKAYDGLTEDQKKLVPDSVLKTLTDAEAAYAKLTK — higher, -0.0576
- HMSNWYGTVVKIQPRPNAQAADTAVVKLLDGSEHRFPVWADHLTTIEVGSRLKKLSGGWDPVLMDPEETF — within 0.2 log units, -0.454
- HMSNWYKNNETDQIWWKDTPDSVGEWLFSFDKKQVFNMFADYPHNLTPEQKKIFDEENPEWSDRP — within 0.2 log units, -0.328
- HMSNYPYLLRTYEGKLAVFTDDLVQPDLVFDVYVRTLPELDQQQLSRGIRVKTYDELTSMIEDYI — lower, -1.13
- HMSPAVEDYLEQIHNLIAQKGYARVVDIAGNLKISQASVTNMIQRMDADGLVVYERYRGVVLTETGRK — lower, -1.3
- HMSPDLNEVEEKVFRALNGVESMHVNKLGIELNLPVSELFFTLLELEMKNVVKALPGGMYKL — lower, -1.95
- HMSPFYILDEVEAALDDTNLGRLLEIYEELRENSQLLVITHQKRTMEVGDALYGVTMRGDGVSAVISQRLR — higher, 0.303
- HMSPKYLELVRWINTQIQEKKLTAGQKMYSENELKEMFGVSRQTVRHAISVLEGEGMIRRVRGSGTYINDN — lower, -1.83
- HMSPLALLTPRELDILRAMTAGASNKEIARQFAIAETTVKIHVQHILRKLDVTTRVHAAVMASESGL — lower, -2.66
- HMSPPALAVQRDGSNVQISWPGAEEGWRLESSAEPSGAAWDLIAQNPTPVGGRWTVSLTEPTGRRFYRLVK — higher, 0.0321
- HMSPSLVEAMRLRMYEMGLNQAKLSELLGVSPSRVSDYLTGRSEPTLKVARDISRKLNIDASIVLG — lower, -1.07
- HMSPSQFRSKSLLVEINFASRQMDGEILQGDYAGKRLSELTEAEVQELTAWLKQSDRESFVLLQAYLLRSG — lower, -0.881
- HMSPSSPNQILGQYPKTKNDIILSSGRYGPYLKYNKKNYSLGNNISVEKLSLEEAVKIIDLKDKK — higher, 0.0457
- HMSPTDKATVNVYALNVRTGPGTNYKVLGSVIKGTELQVLGSSGKWLKVKYGNREAYVAGWLVK — lower, -1.62
- HMSPTEQEKIGLFIKKLREEKNLTQEAFASLLKTSQSAVARIESGNQNITIEQLMKIGEVLNHNIVSI — higher, 0.0103
- HMSQDPLETYYPQWSAAVKQSNPDAEIIRDTDGKYYVEGMTKNRVAVIYENPHLVRLVNATTNVHVE — higher, 0.0542
- HMSQDTLIGRVGVIVIGQARTGSPAQVRVKDGFGQTHYVMAEPDSEGVLKQGEAVLLVSLEGNTFKAILNP — within 0.2 log units, -0.286
- HMSQDVLLKRSGDQIEVKITEVGEDYLKYKKKGFENGPDFKINTSDVFMVTFANGEKMMFEES — higher, 0.0105
- HMSQEAKLAMPVTDLRLSARTLNALELANIRTVRDLVSHTEEQLLELRNFGETALAEVKEKLAALGLRLGM — higher, 0.18
- HMSQESIMPNLVGSTEDEAKAIAVEYGFQLNVISRVNNSQYPAGVIIDQNVDEGVRIKAGYPVGVTIS — higher, -0.207
- HMSQIAENNQKYVGTIQKVLVEGTSKNNDDMLTGRTDSNKVVIFEGDKKLIGNMVELKIVSEHMWYLKGEL — higher, -0.0348
- HMSQISKLWRPSEDVTEILTRSGMDSEFLEGLIPEFIIYWSERADVLVSYNSKFIEHARLKWAQHSAEIKT — lower, -2.63
- HMSQLLHELLAHVLKDRIISGEWPAGSRIMSEHALQERYGVSRGTVRRALAQLVQEGLLVQRKGKGTFVTR — lower, -1.65
- HMSQLVTGVLRNLNDISEKIAAGKAVPEMLGRLENMQQMIANLKGNEGLIKSISILTRSAQDALR — higher, 0.00825
